Reference: patent US9187735B2, “Metal abstraction peptide with superoxide dismutase activity” (University of Kansas, priority 2012, dated 2015)
No end group written: not given here.

How the values were obtained:
[1] = Cyclic voltammetry, midpoint potential; format: physicochemical; settings: pH 10, measured immediately after generation
Method: Electrochemical data were collected. A 3 mL sample of 3 mM Ni-NCC was prepared in 50 mM sodium borate at pH 10. CV data were collected with a CH1812C Electrochemical Analyzer potentiostat (CH Instruments) with a three-electrode setup (platinum working electrode, Bioanalytical Systems, Inc.; Pt auxiliary electrode; Ag/AgCl reference electrode) in a glass CV cell. Potential was applied from zero to 1.2 V with a scan rate of 0.2 V per second, and current was measured. The same experiment was attempted on a 3 mM Ni-NCC sample in 50 mM potassium phosphate at the same pH. The sample was incubated for 24 hours and analyzed again.
Electrochemical data were collected as previously described. 3-mL samples of 3 mM Ni-GGNCC (SEQ ID NO. 1) and Ni-GGGCC (SEQ ID NO. 3) were prepared in 50 mM potassium phosphate at pH 7.4. After incorporation, pH was raised to 10 to observe more intense signal. Cyclic voltammetry (CV) data were collected with a CH1812C Electrochemical Analyzer potentiostat (CH Instruments) with a three-electrode setup (platinum working electrode, Bioanalytical Systems, Inc.; Pt auxiliary electrode; Ag/AgCl reference electrode) in a glass CV cell. Potential was applied from zero to 1.2 V with a scan rate of 0.2 V per second, and current was measured.

[2] = Photopolymerization of hydroxy ethyl methacrylic acid (HEMA), rate by FTIR; settings: light 550 mW cm-2 for 40 seconds
Method: Photopolymerization of hydroxy ethyl methacrylic acid (HEMA) was initiated using a visible light-curing unit (Spectrum® 800, Dentsply, Milford, Del., USA) at an intensity of 550 mW cm-2 for 40 seconds. The subsequent rate of polymerization was measured via FTIR and is reported as a normalized ratio of peak intensities from unreacted and reacted monomer (1455 cm^−1 and 1673 cm^−1). The rate of polymerization was altered by the addition of Ni-NCC and Ni-GGNCC (SEQ ID NO. 1). See FIG. 31, illustrating the percentage of polymer remaining over time.

[3] = Ni-SOD xanthine/xanthine oxidase coupled assay (superoxide scavenging); format: biochemical; settings: cytochrome c, absorbance at 550 nm, reaction buffer pH 7.8
Method: Ni-SOD activity was determined, except Ni-NCC was generated in situ using one equivalent NiSO4. Ni-NCC was aged for 0-120 minutes, and the Ni-SOD activity was determined using the standard xanthine/xanthine oxidase method developed by Crappo and coworkers. All reagents were generated in 50 mM potassium phosphate, 100 μM EDTA reaction buffer at pH 7.8 except for Ni-NCC, which was generated in 50 mM potassium phosphate, pH 7.4. 600 μM cytochrome c from bovine heart (Sigma), 300 μM xanthine (Sigma) and enough xanthine oxidase from buttermilk (Sigma) to cause a change in absorbance at […] of 0.02-0.04 AU per minute were added to a final volume of 300 μL with reaction buffer. The change in absorbance at 550 nm was monitored on a Cary 100 UV-Visible spectrophotometer (Varian). The assay was performed with 100 μM Ni-NCC.
Superoxide scavenging activity was determined as reported previously, except Ni-peptides were generated in situ using one equivalent of NiSO4. Superoxide scavenging activity of Ni-GGGCC (SEQ ID NO. 3), Ni-GGNCC (SEQ ID NO. 1), Ni-GNNCC (SEQ ID NO. 4), and Ni-GNGCC (SEQ ID NO. 5) was determined using the standard xanthine/xanthine oxidase method developed by Crapo and coworkers. […] The change in absorbance at 550 nm was monitored on a Cary 100 UV-Visible spectrophotometer (Varian).

Row | IC50 [3] [µM] | Substance | midpoint potential [1] [V vs Ag/AgCl] | effect on rate of polymerization [2]
1 |  | Ni-GGGCC: nickel complex of pentapeptide GGGCC (SEQ ID NO. 3) (cysteine pairing not given here; also: nickel complex) | 0.78 | 
2 | 9.1 | XXLLL-GGNCC (not fully specified (N-terminus); cysteine pairing not given here; also: metallated with nickel) [Ni-GGNCC] | 0.8 | slowed the rate of polymerization
